The text below walks through data of the PETadex activity labels (doi:10.1128/aem.01704-22).

First the molecules themselves.
B1: unnamed (protein)
chain: MALDPGAAALLQQMAQAGVPPFNQMTVQQARQSMTGLAGTAPKYPVAKVEDRTIPGPAGQIPVRIYWPISGQKVGLVVYYHGGGWVICDLETHDGTCRQLANASDCIVMSVDYRLAPEHKFPAAVEDCYAAAAWAAENAATFGVDPSRLVVAGDSAGGNLAAVVALLAKERGGPRLAHQVLIYPVTDYSFDRPSYRENAEGYLLTRDAMEWFWRHYLNSDADGQNPLASPLRAPDLRGLPSATVITAEYDPLRDEGEAYAQRLMEAGVPTTCVRYLGQIHGFVTLEHVLPAGRQALLALGATIKGVLTGALGGQPAAA
B2: unnamed (protein)
chain: MALYPSARWVLDRMAERGTRPFNEVPVERARQQFDAMMAGAPRPEVARTEDRTVPGPAGDIPVRIYWPQQQTLPLLLVYFHGGGWIMGSIESHDPTCRAIANVAGCIVVSVGYRLAPEHKFPEPLEDCYAAVRWAEENAASLGADPSLLAVGGDSAGGNLAAAVSLLARDRGGPRLAHQVLAYPVLSHGAAFPSYEENADGYFLTREMMLYCWRQYLRDEKDGDDPYASPLKASELSGLPTATIITAEHDPLRDEAEAYGVRLAQAGVPNYCLRYVGMIHGFLSLDNLLPPGRHALWSVATGLRLAATETHKRA

Substrate in the first data set: p-NP-C2
Assay: not given
As to conditions: pH 9; 30 °C.
The Km is the substrate concentration at which the rate is half of its maximum. As a reminder, the kcat is the maximal rate divided by the concentration of active sites. For orientation: kcat/Km means the second-order rate constant that governs catalysis at low substrate concentration. As to B1, the Km was 220 µM, the catalytic constant (kcat) worked out at 57.1 s⁻¹ and the kcat/Km was found to be 260000 M⁻¹ s⁻¹.

With B2, the Michaelis-Menten constant (Km) turned out to be 50 µM, the kcat was found to be 42 s⁻¹ and the catalytic efficiency (kcat/Km) stood at 839000 M⁻¹ s⁻¹.

Substrate in another data set: p-NP-C4
Assay: not given
The settings on record: pH 9; 30 °C.
As for B1, the Michaelis-Menten constant (Km) came out at 80 µM, the catalytic constant (kcat) is 8.77 s⁻¹ and the kcat/Km was found to be 110000 M⁻¹ s⁻¹.

Turning to B2, the Km amounted to 60 µM, the kcat came to 66.2 s⁻¹ and the kcat/Km came out at 1.1e+06 M⁻¹ s⁻¹.

Substrate in the next data set: p-NP-C6
Assay: not given
As to conditions: pH 9; 30 °C.
On to B1, for which the Michaelis-Menten constant (Km) amounted to 90 µM, the catalytic constant (kcat) amounted to 0.318 s⁻¹ and the kcat/Km was 3530 M⁻¹ s⁻¹.

Take B2: the Km came to 40 µM, the kcat was determined as 1.45 s⁻¹ and the kcat/Km came to 36200 M⁻¹ s⁻¹.

Substrate in the next data set: PET
Description: Proxy for plastic degradation [Released monomer concentration (HPLC/LC-MS) (BHET)]. As to conditions: pH 8.
Regarding B1, the “Proxy for plastic degradation” value is 0.075 mM.

With B2, the “Proxy for plastic degradation” value stood at 0.126 mM.
